Target: human IgG (Sigma) (human)
Test: ELISA: SPA′ coated at 5 µg/mL, human IgG 25 µg/mL, detection with HRP-labeled protein L, absorbance at 405 nm

Q: “SPA′ (part of protein A of Staphylococcus aureus Cowan I strain (JCM2179) except for the signal sequence (S domain) and the cell wall-binding domain (X domain)), produced by Brevibacillus choshinensis HPD31-OK having Spa′-pNK3260 (from UniProt P38507 37-327)” was tested. Which human IgG-binding activity per unit mass, relative to protein A manufactured by Repligen did it give?
A: 97%
